Read-outs that look alike come from different tables or passages of the source.
Columns and labels:
Test in all cases: cell-based or functional assay
[1] = target: T1, recombinant human TFPI (tissue factor pathway inhibitor) (human, UniProt P10646 29-304)
[2] = target: T1, recombinant human TFPI (tissue factor …); remark: listed apart in the source
[3] = target: T1, recombinant human TFPI (tissue factor …); remark: listed apart in the source
[4] = target: T1, recombinant human TFPI (tissue factor …); remark: listed apart in the source

Row | Binder | FXa assay % of FXa alone, 2.5 nM Ab, 10 nM TFPI [1] [%] | FXa assay % of FXa alone, 5 nM Ab, 10 nM TFPI [1] [%] | FXa assay % of FXa alone, 10 nM Ab, 10 nM TFPI [1] [%] | FXa assay % of FXa alone, 20 nM Ab, 10 nM TFPI [1] [%] | FXa assay OD, 2.5 nM Ab, 10 nM TFPI [1] | FXa assay OD, 5 nM Ab, 10 nM TFPI [1] | FXa assay OD, 10 nM Ab, 10 nM TFPI [1] | FXa assay OD, 20 nM Ab, 10 nM TFPI [1] | FXa assay % of FXa alone, 2.5 nM Ab, 10 nM TFPI [4] [%] | FXa assay % of FXa alone, 5 nM Ab, 10 nM TFPI [4] [%] | FXa assay % of FXa alone, 10 nM Ab, 10 nM TFPI [4] [%] | FXa assay % of FXa alone, 20 nM Ab, 10 nM TFPI [4] [%] | FXa assay OD, 2.5 nM Ab, 10 nM TFPI [4] | FXa assay OD, 5 nM Ab, 10 nM TFPI [4] | FXa assay OD, 10 nM Ab, 10 nM TFPI [4] | FXa assay OD, 20 nM Ab, 10 nM TFPI [4] | further results
1 | clone 1 (antibody, V domains shown) VH: EVQLVESGGGLVKPGGSLRLSCAASGFTFSSYAMNWVRQAPGKGLEWVGTITTGGSYTYYADSVDGRFTISRDNAKNSLYLQMNSLRAEDTAVYYCARQDGNFLMDYWGQGTLVTVSS VL: DVVMTQTPLSLPVTLGQPASISCKSSPSLLDSDGKTYLNWLQQRPGQSPKRLIYLVSKLDSGVPDRFTGSGSGTDFTLKISRVEAEDVGVYYCWQGTHFPFTFGQGTKVEIKR | 6.3 | 17.1 | 50.1 | 72 | 0.048 | 0.131 | 0.381 | 0.548 | – | – | – | – | – | – | – | – | –
2 | clone 1238 (antibody, V domains shown) VH: EVQLVESGGGLVKPGGSLRLSCAASGFTFSSYAMNWVRQAPGKGLEWVSTITTGGSYTYYADSVEGRFTISRDNAKNSLYLQMNSLRAEDTAVYYCARQDGHFLMDYWGQGTLVTVSS VL: DVVMTQTPLSLPVTLGQPASISCKSSQSLLDVDGKTYLNWLQQRPGQSPKRLIYLVSKLDSGVPDRFTGSGSGTDFTLKISRVEAEDVGVYYCWQGTHFPFTFGQGTKVEIKR | – | – | – | – | – | – | – | – | – | – | – | – | – | – | – | – | FXa assay % of FXa alone, 2.5 nM Ab, 10 nM TFPI [2]: 4.5%; FXa assay % of FXa alone, 5 nM Ab, 10 nM TFPI [2]: 13.2%; FXa assay % of FXa alone, 10 nM Ab, 10 nM TFPI [2]: 5.6%; FXa assay % of FXa alone, 20 nM Ab, 10 nM TFPI [2]: 63.2%; FXa assay OD, 2.5 nM Ab, 10 nM TFPI [2]: 0.039; FXa assay OD, 5 nM Ab, 10 nM TFPI [2]: 0.115; FXa assay OD, 10 nM Ab, 10 nM TFPI [2]: 0.0485; FXa assay OD, 20 nM Ab, 10 nM TFPI [2]: 0.55
3 | clone 4208 (antibody, V domains shown) VH: EVQLVESGGGLVKSGGSLRLSCAASGFTFSSYAMSWVRQAPGKGLEWVGTITTGGSYTYYADSVQGRFTISRDNAKNSLYLQMNSLRAEDTAVYYCARQDGNFLMDYWGQGTLVTVSS VL: DVVMTQTPLSLPVTLGQPASISCKSSQSLLDTDGKTYLNWLQQRPGQSPKRLIYLVSKLDSGVPDRFTGSGSGTDFTLKISRVEAEDVGVYYCWQGTHFPFTFGQGTKVEIKR | – | – | – | – | – | – | – | – | – | – | – | – | – | – | – | – | FXa assay % of FXa alone, 2.5 nM Ab, 10 nM TFPI [3]: 5%; FXa assay % of FXa alone, 5 nM Ab, 10 nM TFPI [3]: 6.1%; FXa assay % of FXa alone, 10 nM Ab, 10 nM TFPI [3]: 12.2%; FXa assay % of FXa alone, 20 nM Ab, 10 nM TFPI [3]: 53.1%; FXa assay OD, 2.5 nM Ab, 10 nM TFPI [3]: 0.041; FXa assay OD, 10 nM Ab, 10 nM TFPI [3]: 0.099; FXa assay OD, 20 nM Ab, 10 nM TFPI [3]: 0.431
4 | clone 1024 (antibody, V domains shown) VH: EVQLVESGGGLVKPGGSLRLSCAASGFTFSSYAMSWVRQAPGKGLEWVSTITTGGSYTYYADSVDGRFTISRDNAKNSLYLQMNSLRAEDTAVYYCARQDGNFLMDYWGQGTLVTVSS VL: DVVMTQTPLSLPVTLGQPASISCKSSQSLLDLDGKTYLNWLQQRPGQSPKRLIYLVSKLDSGVPDRFTGSGSGTDFTLKISRVEAEDVGVYYCWQGTHFPFTFGQGTKVEIKR | – | – | – | – | – | – | – | – | 4.6 | 6.2 | 20.4 | 42.7 | 0.0225 | 0.03 | 0.0985 | 0.206 | –
5 | clone 1104 (antibody, V domains shown) VH: EVQLVESGGGLVKPGGSLRLSCAASGFTFSSYAMNWVRQAPGKGLEWVGTITTGGSHTYYADSVQGRFTISRDNAKNSLYLQMNSLRAEDTAVYYCARQDGNFLMDYWGQGTLVTVSS VL: DVVMTQTPLSLPVTLGQPASISCKSSQSLLDVDGKTYLNWLQQRPGQSPKRLIYLVSKLDSGVPDRFTGSGSGTDFTLKISRVEAEDVGVYYCWQGTHFPFTFGQGTKVEIKR | – | – | – | – | – | – | – | – | 8.5 | 28.3 | 60 | 69.2 | 0.041 | 0.137 | 0.29 | 0.335 | –
6 | clone 10 (antibody, V domains shown) VH: EVQLVESGGGLVKPGGSLRLSCAASGFTFSSYAMNWVRQAPGKGLEWVSTITTGGSYTYYADSVQGRFTISRDNAKNSLYLQMNSLRAEDTAVYYCARQDGNFLMDYWGQGTLVTVSS VL: DVVMTQTPLSLPVTLGQPASISCKSSPSLLDVDGKTYLNWLQQRPGQSPKRLIYLVSKLDSGVPDRFTGSGSGTDFTLKISRVEAEDVGVYYCWQGTHFPFTFGQGTKVEIKR | 9.6 | 5.1 | 11.8 | 38.4 | 0.073 | 0.0385 | 0.09 | 0.292 | – | – | – | – | – | – | – | – | –
